# Publication PMC12655427
# pKd: −log10 of the molar value.
# Key:
# [1] = target: recombinant soluble human FcRn variant FcRn-E2A (FcRn heavy α-chain extracellular domain with β2-microglobulin) (human) (UniProt P55899); experiment: BLI; Octet RED96e; FcRn loaded at 5 µg/mL on HIS1K (anti-penta-HIS) biosensors; antibody 900 as analyte at 89.9 nM; global 1:1 model; pH 6.0–6.1
# [2] = target: recombinant soluble human FcRn variant FcRn-F2A (FcRn heavy α-chain extracellular domain with β2-microglobulin) (human) (UniProt P55899); experiment: as above
# [3] = target: recombinant soluble human FcRn variant FcRn-P2A (FcRn heavy α-chain extracellular domain with β2-microglobulin) (human) (UniProt P55899); experiment: as above
# [4] = target: recombinant soluble human FcRn variant FcRn-E2A (FcRn heavy α-chain extracellular domain with β2-microglobulin) (human) (UniProt P55899); experiment: BLI; Octet RED96e; FcRn loaded at 5 µg/mL on HIS1K (anti-penta-HIS) biosensors; antibody 900 as analyte at 89.9 nM; global 1:1 model; pH 7.4–7.5
# [5] = target: recombinant soluble human FcRn variant FcRn-F2A (FcRn heavy α-chain extracellular domain with β2-microglobulin) (human) (UniProt P55899); experiment: as above
# [6] = target: recombinant soluble human FcRn variant FcRn-P2A (FcRn heavy α-chain extracellular domain with β2-microglobulin) (human) (UniProt P55899); experiment: as above
substance,measurement,setting,value
"antibody 900 (variable regions of the light and heavy chains of the murine antibody 9E2 fused to the Fc fragment of human IgG1 with M252Y, S254T, T256E, E333A, H433K/N434F) (Fc fusion)",pKd,[1],8.46
same,pKd,[2],8.38
same,pKd,[3],8.50
same,pKd,[4],7.80
same,pKd,[5],7.84
same,pKd,[6],7.76
